This note sets out measurements from patent US12233115B2, “Long-acting parathyroid hormone” (Extend Biosciences, Inc., priority 2022, dated 2025).

Data set [1] is described as follows: Single dose pharmacokinetics of EXT607 in male cynomolgus monkeys. It is filed as in vivo. The settings on record: cynomolgus monkey. The procedure: In a single dose pharmacokinetic study, EXT607 was formulated in PBS and groups of male cynomolgus monkeys (n=3), weighing approximately 4 kg each, were dosed at a volume of 1 ml/kg as follows: Group 1, 20 μg/kg intravenous; Group 2, 7 μg/kg subcutaneous; Group 3, 20 μg/kg subcutaneous; Group 4, 70 μg/kg subcutaneous. Blood (1.0 mL) was collected via the jugular vein cannula, transferred into tubes containing K2EDTA, and kept on wet ice until processed for plasma. Blood samples were collected at 0 (pre-dose), 0.083 (IV only), 0.25, 0.5, 1, 2, 4, 6, 8, 12, 24, 36, 48, 60 and 72 h post-dose.
Pharmacokinetic parameters were determined from the plasma concentration versus time data (Table 5) by a non-compartmental analysis with uniform weighting using Phoenix® WinNonlin® Version 6.3 (Certara L.P. (Pharsight), St. Louis, MO). The concentration versus time data were analyzed using the IV bolus or extravascular administration models. Best fit Lambda z ranges were used.
At low doses, the rate of subcutaneous absorption is slower than at high doses, leading to a lower Cmax and an overall flatter PK profile.

Data set [2] in a line: Single dose pharmacokinetics of EXT607 in male rats. The settings on record: in vivo, rat. As for the experimental part: In a single dose pharmacokinetic study, EXT607 was formulated in PBS and groups of male rats (n=3) were dosed at a volume of 1 ml/kg as follows: Group 1, 100 μg/kg intravenous; Group 2, 30 μg/kg subcutaneous; Group 3, 100 μg/kg subcutaneous; Group 4, 300 μg/kg subcutaneous. Blood (0.25 mL) was collected via the jugular vein cannula, transferred into tubes containing K2EDTA, and kept on wet ice until processed for plasma. Blood samples were collected at 0 (predose), 0.083 (IV only), 0.25, 0.5, 1, 2, 4, 6, 8, 12, 24, 36, 48, 60 and 72 h postdose.
Pharmacokinetic parameters were determined from the plasma concentration versus time data (Table 4) by a non-compartmental analysis with uniform weighting using Phoenix® WinNonlin® Version 6.3 (Certara L.P. (Pharsight), St. Louis, MO). The concentration versus time data were analyzed using the IV bolus or extravascular administration models. Best fit Lambda z ranges were used.

In data set [3] the test system is Thyroparathyroidectomized (TPTx) rats. As to the kind of experiment: 28-day pharmacodynamic study in thyroparathyroidectomized (TPTx) rats. It is filed as in vivo, rat. The settings on record: for % Increase in Serum Calcium, Cumulative: Days 1, 12, 27, relative to TPTx/vehicle; for increase in serum calcium compared to TPTx controls (in words): daily SC dosing (EXT607 1, 3, 10 nmol/kg; PTH peptides 10 nmol/kg); for decrease in serum phosphate (in words): daily SC dosing (EXT607 all dose levels; PTH peptides 10 nmol/kg), from Day 12. The source says:
28-day Pharmacodynamic Study of EXT607 in TPTx Rats. Thyroparathyroidectomized (TPTx) rats are a model for hypoparathyroidism. To produce TPTx rats, the thyroid and parathyroid glands were surgically resected and the rats were given L-thyroxine to compensate for the loss of their thyroid. Due to the absence of PTH, TPTx rats had lower levels of serum calcium and higher levels of serum phosphate.
Each group consisted of 10 female rats split into two cohorts of 5 animals for blood sampling purposes. On days 1, 12, and 27, blood (˜0.2 ml) was collected into serum separation tubes at t=0 (pre-dose), 2, 6, 10, and 24 h. The samples were processed into serum by standard methods and analyzed for serum total calcium and phosphate.
Calcium levels at 3 and 10 nmol/kg (20 and 60 μg/kg) were at or just below the normal range of calcium levels for healthy animals. […] For each timepoint, the percent increase in serum calcium relative to the TPTx vehicle control group (Group 2) was determined and daily averages were calculated (Table 9B). Over the three days sampled (Days 1, 12, and 27), […] increased serum calcium an average of 17, 28, and 37% at 1, 3, and 10 nmol/kg, respectively.
At each timepoint, the percent decrease in serum phosphate relative to the TPTx vehicle control group (Group 2) was determined, and daily averages were calculated (Table 9C).

Setting [4] is: 7 μg/kg SC relative to 70 μg/kg SC.
The mark [5] stands for this setting: 20 μg/kg SC relative to 70 μg/kg SC.
[6] abbreviates: in vivo, 7 ug/kg, single 7 μg/kg SC.
The mark [7] stands for this setting: in vivo, 20 ug/kg, single 20 μg/kg IV.
Where [8] appears, read: in vivo, 20 ug/kg, single 20 μg/kg SC.
Where [9] appears, read: in vivo, 70 ug/kg, single 70 μg/kg SC.
Setting [10] is: 10 nmol/kg SC daily, Day 1, relative to TPTx/vehicle.
Where [11] appears, read: 10 nmol/kg SC daily, Day 12, relative to TPTx/vehicle.
Setting [12] is: 10 nmol/kg SC daily, Day 27, relative to TPTx/vehicle.

Values joined by “and” are separate entries in the source; they are usually repeats but may differ in a detail not shown here. Equal values may be shown once.

One may read the AUC(0-inf) as total exposure, with the tail of the curve extrapolated. Higher therefore signals more exposure. The term MRT denotes the average time that molecules of a dose stay in the body. Usually AUC(0-t) stands for exposure summed from dosing to a finite time, without extrapolation to infinity. Lower therefore signals low exposure. One may read the bioavailability as the share of a dose that reaches the circulation, judged against a reference dose that is usually intravenous. As for `C=C1CC[C@H](OCCCNC(=O)CCOCCOCCOCCOCCOCCOCCOCCOCCOCCOCCOCCOCCOCCOCCOCCOCCOCCOCCOCCOCCOCCOCCOCCOCCOCCOCCOCCOCCOCCOCCOCCOCCOCCOCCOCCOCCNC(=O)CCN2C(=O)CC(SC[C@H](NC(=O)[C@H](Cc3ccccc3)NC(=O)[C@H](CC(N)=O)NC(=O)[C@H](Cc3c[nH]cn3)NC(=O)[C@@H](NC(=O)[C@H](CC(=O)O)NC(=O)[C@H](CCC(N)=O)NC(=O)[C@H](CC(C)C)NC(=O)[C@H](CCCCN)NC(=O)[C@H](CCCCN)NC(=O)[C@H](CCCNC(=N)N)NC(=O)[C@H](CC(C)C)NC(=O)[C@H](Cc3c[nH]c4ccccc34)NC(=O)[C@H](CCC(=O)O)NC(=O)[C@@H](NC(=O)[C@H](CCCNC(=N)N)NC(=O)[C@H](CCC(=O)O)NC(=O)[C@H](CCSC)NC(=O)[C@H](CO)NC(=O)[C@H](CC(N)=O)NC(=O)[C@H](CC(C)C)NC(=O)[C@H](Cc3c[nH]cn3)NC(=O)[C@H](CCCCN)NC(=O)CNC(=O)[C@H](CC(C)C)NC(=O)[C@H](CC(N)=O)NC(=O)[C@H](Cc3c[nH]cn3)NC(=O)[C@H](CCSC)NC(=O)[C@H](CC(C)C)NC(=O)[C@H](CCC(N)=O)NC(=O)[C@@H](NC(=O)[C@H](CCC(=O)O)NC(=O)[C@H](CO)NC(=O)[C@@H](NC(=O)[C@@H](N)CO)C(C)C)[C@@H](C)CC)C(C)C)C(C)C)C(=O)O)C2=O)C/C1=C/C=C1\CCC[C@]2(C)[C@@H]([C@H](C)CCCC(C)(C)O)CC[C@@H]12` (some centres unmarked) [EXT607], the “dose-adjusted AUC ratio” value in data set [1] (setting [4]) is recorded as 0.95; in data set [1] (setting [5]), 0.85; in data set [1] (70 μg/kg SC (reference)), 1.00. Further, the “dose-adjusted Cmax ratio” value in data set [1] (setting [4]) worked out at 0.28; in data set [1] (setting [5]), 0.55; in data set [1] (70 μg/kg SC (reference)), 1.00. For the same molecule, the half-life in data set [1] (in vivo, sc, NHP, after subcutaneous dosing, read-out: terminal half-life) was 24 to 32 h; in data set [1] (in vivo, 7 ug/kg, single 7 μg/kg SC, read-out: t1/2 (converted)), 24 h; in data set [1] (in vivo, 20 ug/kg, single 20 μg/kg IV, read-out: t1/2 (converted)) it was 32.3 h; in data set [1] (in vivo, 20 ug/kg, single 20 μg/kg SC, read-out: t1/2 (converted)), 24.3 h; in data set [1] (in vivo, 70 ug/kg, single 70 μg/kg SC, read-out: t1/2 (converted)), 27.7 h; in data set [1] (in vivo, across doses, read-out: t1/2 of elimination) it was 24 to 32 h. In addition, the half-life in data set [2] (300 ug/kg, SC 30, 100 or 300 μg/kg, read-out: half-life) lay in the range of 7 to 15 h; in data set [2] (sc, rats, after subcutaneous dosing, read-out: terminal half-life) it was 8 to 15 h. Also, the AUC(0-inf) worked out at 483 ng·h/mL in data set [1] (setting [6]); 2850 ng·h/mL in data set [1] (setting [7]); 1290 ng·h/mL in data set [1] (setting [8]); 5300 ng·h/mL in data set [1] (setting [9]); 186 ng·h/mL in data set [2] (30 ug/kg, single 30 μg/kg SC); 4390 ng·h/mL in data set [2] (100 ug/kg, single 100 μg/kg IV). Besides, the AUC(0-inf) came out at 472 ng·h/mL in data set [2] (100 ug/kg, single 100 μg/kg SC) and 1290 ng·h/mL in data set [2] (300 ug/kg, single 300 μg/kg SC). Moreover, the MRT in data set [1] (setting [6]) was 29.5 h; in data set [1] (setting [7]), 11.2 h; in data set [1] (setting [8]) it was 23.3 h; in data set [1] (setting [9]), 17.5 h; in data set [2] (30 ug/kg, single 30 μg/kg SC) it was 15.9 h; in data set [2] (100 ug/kg, single 100 μg/kg IV), 3.49 h. Besides, the MRT was found to be 13.7 h in data set [2] (100 ug/kg, single 100 μg/kg SC) and 13.6 h in data set [2] (300 ug/kg, single 300 μg/kg SC). Further, the C0 was 782 ng/mL in data set [1] (setting [7]) and 2860 ng/mL in data set [2] (100 ug/kg, single 100 μg/kg IV). Also, the Vd in data set [1] (in vivo, 20 ug/kg, single 20 μg/kg IV, read-out: VZ) was 0.34 L/kg; in data set [2] (100 ug/kg, single 100 μg/kg IV, read-out: VZ), 0.304 L/kg. Further, the AUC(0-t) in data set [1] (setting [8]) stood at 1160 ng·h/mL. In addition, the bioavailability in data set [1] (in vivo, across SC doses, read-out: bioavailability when delivered subcutaneously) is 45 to 54%; in data set [2] (30 ug/kg, single 30 μg/kg SC, read-out: Bioavailability), 12.9%; in data set [2] (100 ug/kg, single 100 μg/kg SC, read-out: Bioavailability), 10.7%; in data set [2] (300 ug/kg, single 300 μg/kg SC, read-out: Bioavailability), 9.67%; in data set [2] (male rats, based on AUC vs intravenous injection, across SC doses, read-out: subcutaneous bioavailability (% F)) it was 10 to 13%.
As for `CC[C@H](C)[C@H](NC(=O)[C@H](CCC(=O)O)NC(=O)[C@H](CO)NC(=O)[C@@H](NC(=O)[C@@H](N)CO)C(C)C)C(=O)N[C@@H](CCC(N)=O)C(=O)N[C@@H](CC(C)C)C(=O)N[C@@H](CCSC)C(=O)N[C@@H](Cc1c[nH]cn1)C(=O)N[C@@H](CC(N)=O)C(=O)N[C@@H](CC(C)C)C(=O)NCC(=O)N[C@@H](CCCCN)C(=O)N[C@@H](Cc1c[nH]cn1)C(=O)N[C@@H](CC(C)C)C(=O)N[C@@H](CC(N)=O)C(=O)N[C@@H](CO)C(=O)N[C@@H](CCSC)C(=O)N[C@@H](CCC(=O)O)C(=O)N[C@@H](CCCNC(=N)N)C(=O)N[C@H](C(=O)N[C@@H](CCC(=O)O)C(=O)N[C@@H](Cc1c[nH]c2ccccc12)C(=O)N[C@@H](CC(C)C)C(=O)N[C@@H](CCCNC(=N)N)C(=O)N[C@@H](CCCCN)C(=O)N[C@@H](CCCCN)C(=O)N[C@@H](CC(C)C)C(=O)N[C@@H](CCC(N)=O)C(=O)N[C@@H](CC(=O)O)C(=O)N[C@H](C(=O)N[C@@H](Cc1c[nH]cn1)C(=O)N[C@@H](CC(N)=O)C(=O)N[C@@H](Cc1ccccc1)C(=O)O)C(C)C)C(C)C` [PTH(1-34), reference compound], in data set [3] (setting [10]), the “% Decrease in Serum Phosphate, Daily Average” value (from here on “% Decrease … Daily Average”) is recorded as −1.7% and the “% Increase in Serum Calcium, Daily Average” value was determined as 8.0%. For the same molecule, in data set [3] (setting [11]), the “% Decrease … Daily Average” value came to 9.1% and the “% Increase in Serum Calcium, Daily Average” value was found to be 12%. Moreover, in data set [3] (setting [12]), the “% Decrease … Daily Average” value was found to be 13% and the “% Increase in Serum Calcium, Daily Average” value is on record as 6.4%. The “% Increase in Serum Calcium, Cumulative” value in data set [3] (10 nmol/kg SC daily) is 9% and 8.7%. Moreover, in data set [3], the “increase in serum calcium compared to TPTx controls (in words)” value was “minimal and did not reach statistical significance”; the “decrease in serum phosphate (in words)” value is recorded as “Occasional decreases”.

B1: PTH(1-84): wild-type full-length parathyroid hormone, 84 amino acids, SEQ ID NO: 2 (protein, UniProt P01270 32-115, looked up)
Parathyroid hormone: SVSEIQLMHNLGKHLNSMERVEWLRKKLQDVHNFVALGAPLAPRDAGSQRPRKKEDNVLVESHEKSLGEADKADVNVLTKAKSQ
modifications: Parathyroid hormone
B1: the “% Decrease … Daily Average” value was found to be 0.2% in data set [3] (setting [10]), 17% in data set [3] (setting [11]) and 17% in data set [3] (setting [12]). For the same molecule, the “% Increase in Serum Calcium, Daily Average” value is 7.0% in data set [3] (setting [10]), 14% in data set [3] (setting [11]) and 4.1% in data set [3] (setting [12]). In data set [3] (10 nmol/kg SC daily), the “% Increase in Serum Calcium, Cumulative” value was 9% and 8.5%. Besides, the “% Decrease in Serum Phosphate, Combined” value in data set [3] (10 nmol/kg SC daily, Days 12, 27, relative to TPTx/vehicle) is on record as 17%. In addition, in data set [3], the “increase in serum calcium compared to TPTx controls (in words)” value was “minimal and did not reach statistical significance with the exception of two isolated timepoints”. Moreover, in data set [3], the “decrease in serum phosphate (in words)” value is given as “Slight decreases”.
